Results as given in the DeepSol protein solubility set.

Assay: soluble on expression in E. coli; label from the status in PepcDB or PDB records

Sequence	soluble on expression in E. coli
ESNDSGIVVYNAQHENLVKSWVDGFTKDTGIKVTLRNGGDSELGNQLVQEGSASPADVFLTENSPAMVLVDNAKLFAPLDAVTQAQVAQEYRPEHGRWTGIAARSTVFVYNPEKISEAELPKSIMDLAKPEWKGRWAASPSGADFQAIVSAMLELKGEKATLEWLKAMKTNFTAYKGNSTVMKAVNAGQIDGGVIYHYYRFVDQAKTGENSGKTQLHYFKHQDPGAFVSISGGGVLASSKHPKEAQEFVKWITGKSGQDILRTNNAFEYAVGVDAASNPKLVPLKDLDAPKVEPSKLNSKKVVELMTEAGLL	soluble
MTDYAHKMSLDLRMIDLERYSDHIDNKASHCAKMLNDYYQKFDAQKGTQFVFSDLGTYKPGGEFNVYSEIKRKLVEDYHIPSHEVRFIQECKNEKAKKAMVDAMNRGDIRIIFGSTSMLGTGVNAQQRAVAIHHLDTPWRPSDLEQRNGRAVRKGNMIAKEFADNKVDVIIYAVERSLDSYKFNLLHNKQLFINQLKTNTLGSRTIDEGSMDEDGGMNFSEYVAVLSGNTNLLEKAKLDKKIATLESERKNFLRERDTATGKLAEIDSSVSFHSDKIKEAKEDLACFEKRVERDAEGLPINKLTIKGVEGSTDIKVIAARLQEIEEKARTKGEYNKIGEIYGFSIMVKTENSSKELFDCSSNRFFVKGQESIYYTYNNGKLASDPKLACQNFINALERIPKVIESHEKEKEKVSANKEVYMTIAGGSWKKEDELRSLKGQAAELDRKIALTLAPPEEEKETEEEKQVQEHGISGKEPIQETRYSAEPISHKQAEKTPPSEQVTPPPTRQPRSNEPGGYIETQMEIG	not soluble
MSASESDLAIVAEQLGREPRGVIEVSYHTPDGVPGVVMTTPKLDDGTPFPTLYYLTEPRLTAEASRLEVAHVMKWMTDRLHSDEELRQDYERAHEYFLAKRNALEDLGTDFSGGGMPDRVKCLHVLIAYALAEGPDHFRLGTEAVALAADHGGLRGTAIPQDWPTVESLGMSLDQFDFSHADVPGASK	not soluble
MNNTDYMIHLLARTIKTGKDELITPLIIQLSDMQVSRDLLEKHNLPALVAEYAPFNEAAKSLSKSVLAWKYEEIAQEMPQLLKEFVQIAKEKRVPEEFMVRLVTSLMDFDDLDTVRSCLEILNHFEFSLDEYEELGIYRKATQFEGQFRDADEIIAKVDVLLLQDEILEEDEAEVEADDLIGHAEENEEEENDFSDDESVISETESGIYTDEELELEDHFEAVRKEDRKDQVMTEICMMLLAGYIRSGNSEVISAAIKFTWAFDYSLEMYQKYDIQNLIYNFGVHNDDAELLMNHIKELQARELFNENRKFFKRFLRTCMEEKTITDSVLSYLKGFLENGDDYMVSCTLKFLLGMPITLSQFKTSHVEACLENLESGPSAQLGFMLKMKIQKLEHSEKS	not soluble
KELKDSYVEYTLLYDMIANRIGIDEVVAENGTLRLMKNQVWAYDSLPHMLIAGGTGGGKTYFLLTIIEALLKSDAELFILDPKNADLADLGTVMPHVYSQKEEISACVEDFYERMIARSKAMKEMPNYKPGENYAYLGLPPNFLIFDEYVAYMGANRFPTS	not soluble
MSWKHIKIPNGDTMIFCNSFITRKSSMNIVVTHTPIVTTLEMQKAYEPLAKHNVNIFAFDFSGTGKSDGYEKDFSRNSIVKDLDSVITYIEKNYSSNIHLYGNTGIGGMFAQYYACSDNKLKSFAQFACVDYKNTTGVGYTYLTVKLLNFFFKFLPNFHITVKPPKYKGYNEVYDNEFYKIFEKKNPHIWKNSTKIINTMLECFIAKDSKIKDGVNIPTLVFKTLHDRYFKTQYFDSYYNSLKCKKKLVEINNVHNSYYIDSEKFCQEAYDWFVENQ	not soluble
MTTPTFDINAAIQALREGKDLTGKDGILTPLIKQLTEAALAAELDSHLTSTEGANRKNGKTTKTIKSPLGNFELNTPRDRAGTFEPQLVKKHQTQLTDEMERKIIGLFSLGSSYQDIRAHIEDMYGMSVSNGTVNAITDKLLPELQAWRERELEPLYPVIWLDAIHYKIKENGRFISKAVYTILALNVDGKKELLGLYLSDNEGAHHWLSVLTDLYNRGVKDILIACVDGLKGFPEAIATIYPQTEVQLCVIHQIRNSIKYVASKHQKAFMADLKCVYKAATLNAAEMALDELETKWGDKYPVVIKSWRNKWALLSVYFKYPDYVRTAIYTTNAVEAVHRQFRKLAKTKGGFANENSLLKLLYAGILKASERWTHP	soluble
MSLEELVKKLGDKLNEAEADAKKFGKLIGRITRFESVSLKDNELIGVDIAFEDYLNSDVKKGQYLAIRSITRPVTILGQVRAITRADALSKLGIRELSYPKDPTTIITTTYVELKPIAEIENGKIRPPVSPVDPQSPVFIPNHDLIEKILNIPSRGITIGKIFSGGEETDASVRLDEYTLRHHTLILGTTGSGKTTLLKSMISSEEIDKGTFIFDRQGDFINYLIEKRRGFAVIMPVVEEASRSISLKDHAEKFANWYDCDNILDVKEDGVLEECNGSEVFLIPYSINFYSVLKNFNKITPYFTPKASMYWEAIVNNMFEIIGYDLYELADKKQTFYEDQLSDFLRDRLTPGSLLGKISGFYDLKMVSGSKSKQFSSYDGSKKMLTINMGKAFEEAMKRLDVPYQTKEAILRTLKAYDSYGIFTVPGTVDFKPKDVFSSYSDVVVDLSWVMNRSASIEAVATIAYKLLEDFFNWKDELYKMKETTKLTLVIMDEAHEYFPQTDQENVSKDIVEGLINRIMRLGRVRNIGVVLATHVPEDLNPLVLQLTNTKVVMRNESHVLRRLGLEEYEDFLRHATPGLAIVYSIYFSEVPIKTIQREGHHHHHH	soluble
MSLKKTILCFGEALIDMLAQPLVKKGMPRAFLQCAGGAPANVAVAVARLGGAVQFVGMLGSDMFGDFLFDSFAEAGVVTDGIVRTSTAKTALAFVALDAHGERSFSFYRPPAADLLFRVEHFQDASFSDALIFHACSNSMTDADIAEVTFEGMRRAQAAGAIVSFDLNFRPMLWPNGENPASRLWKGLSLADVVKLSSEELDYLANTLAADANAVIQQLWQGRAQLLLVTDAAGPVHWYTRTAGGEVPTFRVQVQDSNAAGDAFVGGMLYTFAQQFDDAAALIDFCHDPESIVSTLRFAAAVGALAVTRQGAFTAMPMLSEVLSLIQEQSEGHHHHHH	soluble
KEENNFINLYTVKNPLKCKIVDKINLVRPNSPNEVYHLEINHNGLFKYLEGHTCGIIPYYNELDNNPNNQINKDHNIINTTNHTNHNNIALSHIKKQRCARLYSISSSNNMENLSVAIKIHKYEQTENAPNITNYGYCSGFIKNLKINDDIYLTGAHGYFNLPNDAIQKNTNFIFIATGTGISPYISFLKKLFAYDKNNLYNRNSNYTGYITIYYGVYNEDSILYLNELEYFQKMYPNNINIHYVFSYKQNSDATSFYVQDEIYKRKTEFLNLFNNYKCELYICGLKSIRYKVMDILKSHDQFDEKKKKRVHVEVY	soluble
MTENLTVQPERLGVLASHHDNAAVDASSGVEAAAGLGESVAITHGPYCSQFNDTLNVYLTAHNALGSSLHTAGVDLAKSLRIAAKIYSEADEAWRKAIDGLFT	soluble
GPLGSPWYYGKVTRHQAEMALNERGHEGDFLIRDSESSPNDFSVSLKAQGKNKHFKVQLKETVYCIGQRKFSTMEELVEHYKKAPIFTSEQGEKLYLVKHLS	soluble
MSLATSRTVLPDDLLINASDEVLTRQDLVLTALGRRPADRLLRVGRLLDVHSRTWLDDQEIVIKGRRIAYVGPAGSYAGEVNERFSEPDLAAVPGFGEAHKHIESSHLTPEWEAALVMPHGVTWTCEASHEFSNVNGARNLEFWLEARRRGSPMKIFPLPGSAVPPTAYEWGGGWFGYDEQKAFLSESLMVAGLDEVMDWPSISDPGNPSYDRLWGMIGATFEQRGVVEGHGAGLRDMASINAFAAAGLASDHEGWFLDEIWQKLLHGLFIELRPHSLPEVIRGLIDKGLTDWSQIALVTDDRSASDTLKIGATDHNVRLAIENGLAPETAIQCVTLNPARHMRLTPWVGSIAPGRFADIVLLSDVASLSIEKVWADGRPASEGATFIGVRPEIDWPQWATRTVKIDRTVTADDFRIEAPPNRTTVNAALLRPFHWHDDFITMELPVEEGAVQRDAARNVTKFSIVDRFSGEARVSRMFWLGTGPRTPETALASTLGHDKHNIWTVGSSDEAMAISVNALNEQQGGWVLVSGGKILARVRYEVGGLMTARSAEALDAEMQALYAAGAGIDWMYEPTFSPRWWPGFPERLSFATLTCSPWRWVLVAPSELAPDGFVNVLTGKTHPIVWEGHHHHHH	soluble
MFDDLHEYLDFLARKNDLITVNDQVDPDLELTYILSEEERIGRGRTIQFNRVKGSEVPAVGNLFSTYEKMKTVLGDDPYQIGRRIVEIAQPPGDSESFIGKGIEMMRELGGLRPKIAGSLPSNYDELDRVDLFRYPICKTWPQDGGKFITLPLVITKDPETGTRNMGMYRMQVYDSETTGMHWHIHKGGSENFQKEAQKHEVMDVAVVIGSDPLTIFSAVAPLPNGIDEFMFRGLVSKKRFDLVKGKTVNLEYPRNFEIVLEGYIDPAETRIEGPFGDHTGYYSLEEQFPVFHIKKIIERRDRIYPTTIVGKLWHEDVIMGKTIERMFLPLIQMVMPEVVDINTMEEAVFHNMVIVSIKKRYPGHAKKVMFGLWGMGQMMFSKIIVVVDDDINVHNRKEVIWAMTTRIDPDRDVIIIPGTVTDSLDHASPIFNYGSKMGIDATKKRPDEGYQRRWPDVLEMPEDVTNRVRDLMKKNGMTQLEHHHHHH	not soluble
KAVIDIDAATKIMCSNAKAISLNEVEKNEIISKYREITAKKSERAELKEVEPIPLDWPSDLTLPPLPESTNDYVWAGKRKELDDYPRKQLIIDGLSIVIPTYNRAKILAITLACLCNQKTIYDYEVIVADDGSKENIEEIVREFESLLNIKYVRQKDYGYQLCAVRNLGLRAAKYNYVAILDCDMAPNPLWVQSYMELLAVDDNVALIGPRKYIDTSKHTYLDFLSQKSLINEIPEIITNNQVAGKVEQNKSVDWRIEHFKNTDNLRLCNTPFRFFSGGNVAFAKKWLFRAGWFDEEFTHWGGEDNEFGYRLYREGCYFRSVEGAMAYHQEPPGKENETDRAAGKNITVQLLQQKVPYFYRKKEKIESATLKRVPLVSIYIPAYNCSKYIVRCVESALNQTITDLEVCICDDGSTDDTLRILQEHYANHPRVRFISQKNKGIGSASNTAVRLCRGFYIGQLDSDDFLEPDAVELCLDEFRKDLSLACVYTTNRNIDREGNLISNGYNWPIYSREKLTSAMICHHFRMFTARAWNLTEGFNESISNAVDYDMYLKLSEVGPFKHINKICYNRVLHGENTSIKKLDIQKENHFKVVNESLSRLGIKKYKYSPLTNLNECRKYTWEKI	soluble
MGSDKIHHHHHHMHRDTVFDLIGIGFGPSNLALAVRLAEEAGVPDLAHCFIERQPEFGWHRGMLLDDCRMQISFLKDLVTMRDPKSRFTFINYLFERGRLADFVNLKSFYPTRVEFHDYLAWVAASFDDRVNYGQTVTGIEAVKATARTNEVEALRVFSRDSEGREWQRVTRALSVGIGGGAQVPEAFAALGTHNIVHSSQYLTSIDRVVGPASSARKRVAVIGAGQSAAEVFVDLTRRYPHVDASLIIRSGALKPADDSPFVNEIFSPAFTDVVYAQPRDGRRALIERFRDTNYAVVDRPLIEQIYEMLYLQNVCAEPRHRLLANTGIETAVRTVNGRIELTLRDRLNGHARAEQFDALVLATGYRRDTHLDLLEGLAPHLGEALAQGNVERDYRLATPASFKPRIYLQGCCEDSHGLSDTLLSVLALRSDEIAASLAHHAAQDRSAGRAGEAQANATAASRMAFAL	not soluble
MAHHHHHHMTRDDGTQVAQLLSEGKYNLPMFLRYLKASSMEGDQPDKSLLLGILLQSLARFQTSDFTACMCLVPSHVQDSPSVEKELNYIYGLENLLSCGLFARFWTQWSSVKEHLPESFHFEARVRTSILETICITMESIPTEKLATYLAVSPDQVQKVVHNAMKDSEDRDMKVMAYDSGSVVFHRNRFNYPQAGAAQDAIRFTDVSSVIHNDVPRRGAAVAADETRDVRARTWARMADE	soluble
